Experimental findings from patent EP3971294A1 are described below.

Holding throughout (experiment): cell-based or functional assay
Test [1] concerns the target CenNLS^GFP: Centauri fragment of superfolder GFP, HA tag, triple SV40 NLS.
Test [2] deals with CenNLS^NLuc: Centauri fragment of NanoLuc, HA tag, triple SV40 NLS.
The target of test [3] is CenNup214^NLuc: Centauri fragment of NanoLuc, HA tag, full-length Nup214 (UniProt P35658).
Chain of UniProt P35658 (P35658 whole entry, the tested form may be a part): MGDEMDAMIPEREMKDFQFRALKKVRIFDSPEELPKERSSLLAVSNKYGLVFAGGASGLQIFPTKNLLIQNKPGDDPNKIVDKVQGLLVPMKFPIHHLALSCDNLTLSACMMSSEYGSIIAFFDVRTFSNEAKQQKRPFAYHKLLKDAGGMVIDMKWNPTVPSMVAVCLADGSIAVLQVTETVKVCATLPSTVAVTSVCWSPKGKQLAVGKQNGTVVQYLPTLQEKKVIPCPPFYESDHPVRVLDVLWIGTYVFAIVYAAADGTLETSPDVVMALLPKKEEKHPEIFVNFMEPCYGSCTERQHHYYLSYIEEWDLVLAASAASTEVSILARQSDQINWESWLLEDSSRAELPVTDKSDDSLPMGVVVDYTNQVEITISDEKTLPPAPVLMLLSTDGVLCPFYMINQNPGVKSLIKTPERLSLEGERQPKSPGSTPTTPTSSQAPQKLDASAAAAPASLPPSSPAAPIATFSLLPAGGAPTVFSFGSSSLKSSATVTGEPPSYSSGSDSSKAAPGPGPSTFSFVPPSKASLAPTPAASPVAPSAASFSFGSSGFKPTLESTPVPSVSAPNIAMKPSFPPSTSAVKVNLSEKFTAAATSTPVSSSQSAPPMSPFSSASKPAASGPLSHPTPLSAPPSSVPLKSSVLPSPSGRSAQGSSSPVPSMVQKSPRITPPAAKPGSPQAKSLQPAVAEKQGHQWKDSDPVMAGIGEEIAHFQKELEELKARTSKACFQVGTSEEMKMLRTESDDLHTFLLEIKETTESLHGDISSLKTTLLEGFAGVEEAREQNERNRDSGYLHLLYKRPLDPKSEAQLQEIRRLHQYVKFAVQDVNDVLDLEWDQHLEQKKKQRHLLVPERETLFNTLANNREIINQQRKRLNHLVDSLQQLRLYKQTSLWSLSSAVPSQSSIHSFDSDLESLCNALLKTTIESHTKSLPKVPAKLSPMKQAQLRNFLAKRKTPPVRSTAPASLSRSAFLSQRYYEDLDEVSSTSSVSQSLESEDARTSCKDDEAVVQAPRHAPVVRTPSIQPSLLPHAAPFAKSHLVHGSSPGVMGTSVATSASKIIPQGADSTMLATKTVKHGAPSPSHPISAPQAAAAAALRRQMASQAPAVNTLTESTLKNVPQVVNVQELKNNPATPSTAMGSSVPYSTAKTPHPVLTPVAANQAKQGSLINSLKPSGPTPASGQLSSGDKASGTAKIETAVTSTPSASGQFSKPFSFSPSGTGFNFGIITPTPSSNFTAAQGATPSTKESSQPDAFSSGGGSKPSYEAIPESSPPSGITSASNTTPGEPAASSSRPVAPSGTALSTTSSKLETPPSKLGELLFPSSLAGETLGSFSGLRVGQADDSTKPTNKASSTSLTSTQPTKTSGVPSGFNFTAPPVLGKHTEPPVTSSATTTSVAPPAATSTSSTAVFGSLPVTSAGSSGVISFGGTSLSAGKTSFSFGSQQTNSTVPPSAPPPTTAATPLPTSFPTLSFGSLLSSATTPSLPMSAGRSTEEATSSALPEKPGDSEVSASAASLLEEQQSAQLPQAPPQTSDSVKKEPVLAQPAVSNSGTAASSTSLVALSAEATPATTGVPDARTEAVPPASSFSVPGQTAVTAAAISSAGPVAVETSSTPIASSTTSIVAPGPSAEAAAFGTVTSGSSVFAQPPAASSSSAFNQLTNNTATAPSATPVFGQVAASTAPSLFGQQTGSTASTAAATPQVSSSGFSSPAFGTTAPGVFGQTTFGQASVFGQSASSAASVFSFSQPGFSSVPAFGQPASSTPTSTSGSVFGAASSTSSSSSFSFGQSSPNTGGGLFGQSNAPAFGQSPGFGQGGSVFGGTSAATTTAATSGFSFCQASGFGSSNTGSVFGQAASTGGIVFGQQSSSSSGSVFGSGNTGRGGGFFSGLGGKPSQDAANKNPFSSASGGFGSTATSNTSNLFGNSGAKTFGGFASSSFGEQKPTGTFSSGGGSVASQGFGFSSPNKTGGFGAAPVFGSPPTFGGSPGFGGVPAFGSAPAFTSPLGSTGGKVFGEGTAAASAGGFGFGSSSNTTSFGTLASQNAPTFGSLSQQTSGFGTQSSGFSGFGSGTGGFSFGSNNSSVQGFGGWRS

In turn, “HIV-1 LAI integrase (IN) with α^GFP fused at its C-terminus, as carried by αHIV^GFP (from UniProt P03367 1160-1447)” gave a fold increase in fluorescence (flow cytometry, 48 hpi) in test [1] of 5 to 10 fold.

On to “HIV-1 LAI integrase (IN) with α^NLuc fused at its C-terminus, as carried by αHIV^NLuc (from UniProt P03367 1160-1447)”, for which, in test [2], the fold increase in emitted luminescence signal (plate luminometry) was 5 to 200 fold. This substance gave a fold increase in NLuc signal in test [3] of 10 fold. As to “HIV-1 LAI integrase D116I mutant with α^NLuc fused at its C-terminus, as carried by αHIV-D116I^NLuc (from UniProt P03367 1160-1447)”, the fold increase in NLuc compared to infection in the presence of Nevirapine in test [2] came out at 10 fold.

Take “IRF3α-3xFLAG: IRF3 fused to the α fragment of NanoLuc and a 3xFLAG tag (from UniProt Q14653 1-427)”: in test [2], the αCentauri complementation, luminescence fold above uninfected controls (SeV infection, 6 h) was in the range of 3 to 6 fold.
